# Test results from patent publication US20110263436A1.
# Key:
# [1] = molecular target: HCV NS3 fragment 1190-1216 (…) (Hepatitis C virus); assay: flow cytometry titration on yeast displaying the NS3 1190-1216 fragment
# [2] = molecular target: HCV NS4 fragment 1692-1713 (…) (Hepatitis C virus); assay: flow cytometry titration on yeast displaying the NS4 1692-1713 fragment
# [3] = molecular target: wildtype HCV core 27-39 fragment (…) (Hepatitis C virus); assay: flow cytometry titration on yeast displaying the core 27-39 fragment (apparent KD)
binder,measurement,setting,value
"anti-HCV NS3 chimeric antibody (HCV NS3 CHO 17-903-132sc171) (antibody, V domains shown) VH: EVKLVESGGGLVQPGGSLKLSCATSGFTFSDYYMYWVRQTPEKRLEWAAYISNGAGSTYYPDTVKGRFTISRDNAKNTLYLQMSRLKSEDTAMYYCARGLWDGLDYWGQGTTLTVSS VL: DVVMAQTPLSLPVSLGDQASISCRSSQSLVHSNGNTYLHWYLQRPGQSPKLLIYKVSNRFSGVPDRFSGSGSGTDFTLKISRVEAEDLGVYFCSQSTHVPYTFGGGTKLEIKR",Kd,[1],68 nM
"anti-HCV NS4 chimeric antibody (HCV NS4 CHO E99H6C34sc203) (antibody, V domains shown) VH: QIQLVQSGPELKKPGETVKISCKASGYTFTDYSMHWVNQAPGKGLKWMGWINTETGEPTYADDFKGRFAFSLETSASTAYLQINNLKNEDTATYFCTRGGTGYWGQGTTLTVSS VL: DVVMTQTPLSLPVSLGDQASISCRSSQSLVYSNGNTYLHWYLQKPGQSPKLLIYKVSNRFSGVPDRFSGSGSGTDFTLKISRVEAEDLGVYFCSQSTHVPWTFGGGTKLEIKR",Kd,[2],0.5 nM
"anti-HCV core chimeric antibody (HCV core 201-603-486-333) (antibody, V domains shown) VH: QIQLVQSGPELQKPGKTVKISCKTSGYTFTDYPMHWVKQAPGKGLKWMGWINTETGEPTRVDDFKGRFAFSLETSASTAYLQINNLKDEDTATYFCARGGGVRRQVMDYWGQGTSVTVSS VL: DIVMSQSPSSLAVSAGEKVTMSCKSSQSLLNSRTRKNYLVWYQQKPGQSPKLLIYWASTRDSGVPDRFTGSGSGTDFTLTISSVQAEDLAVYYCKQSYNLYTFGGGTKLEIKR",Kd,[3],0.7 nM
